Test results taken from patent publication US20180021429A1, “ANTICANCER AGENTS OR ANTIMETASTATIC AGENTS USING FSTL1 AND COMBINATION DRUG THEREOF” (PHARMA FOODS INTERNATIONAL CO., LTD., priority 2015, published 2018).

Key:
[1] = test system: induction of mesenchymal stem cells (MSCs) by FSTL1; test: Inhibitory activity against induction of MSC by FSTL1, CD45-negative cells (Examples 6, 8, 12); type: cell-based, mouse; conditions: Example 8, FIG. 6A/36A; FSTL1 20 ng/mL; antibody 10 μg/mL; 8 days
Experimental: (§1) Mouse bone marrow cells prepared in the same way as in Example 4 were supplemented with 50 ng/mL (final concentration) of FSTL1 and 10 μg/mL of the anti-FSTL1 antibody (#5-2, #5-3, #5-8, #5-10, 45-43, #6-55, or #7-34) or a control antibody anti-DNP antibody and cultured under stimulation. 11 days thereafter, the number of cells was counted while the cells were stained with a PE-Cy5-labeled anti-CD45 antibody (BD Pharmingen/Becton, Dickinson and Company, Cat. No. 555484), and the content of CD45-negative cells reported to generally contain MSCs at a high rate was analyzed by flow cytometry using FACScan to calculate the percentage and number of MSCs per culture (FIG. 5A).
(§2) Mouse bone marrow cells prepared in the same way as in Example 4 were supplemented with 20 ng/mL (final concentration) of FSTL1 and 10 μg/mL of the anti-FSTL1 antibody (#5-2, #5-3, #5-8, #5-10, #5-43, #6-55, #8-1, #8-4, #8-7, and #8-8) or a control antibody anti-DNP antibody and cultured under stimulation. 8 days thereafter, the number of cells was counted while the cells were stained with a PE-Cy5-labeled anti-CD45 antibody, and the content of CD45-negative cells was analyzed by flow cytometry using FACScan to calculate the percentage and number of MSCs per culture (FIG. 6A).
as §2, with “(#5-2,” for “(#5-2, #5-3,”, “#5-8,” for “#5-8, #5-10, #5-43,”, “#6-55, #7-34,” for “#6-55,”, “#8-7, or” for “#8-7, and”, “(FIG. 7).” for “(FIG. 6A).”
as §1, with “35A).” for “5A).”
as §2, with “36A).” for “6A).”
as §2, with “(#5-2,” for “(#5-2, #5-3,”, “#5-8,” for “#5-8, #5-10, #5-43,”, “#6-55, #7-34,” for “#6-55,”, “#8-7, or” for “#8-7, and”, “(FIG. 37).” for “(FIG. 6A).”

FSTL1 = biological target: T1, FSTL1 (Homo sapiens, UniProt Q12841); test: Inhibition of MSC induction by FSTL1 in mouse bone marrow cells, CD45-negative cells (Examples 6, 8, 12); type: cell-based; set-up: purchased R&D Systems, Inc. 1694-FN-050; conditions: Example 8; FSTL1 20 ng/mL, antibody 10 μg/mL, 8 days
T1 sequence (Q12841 21-308): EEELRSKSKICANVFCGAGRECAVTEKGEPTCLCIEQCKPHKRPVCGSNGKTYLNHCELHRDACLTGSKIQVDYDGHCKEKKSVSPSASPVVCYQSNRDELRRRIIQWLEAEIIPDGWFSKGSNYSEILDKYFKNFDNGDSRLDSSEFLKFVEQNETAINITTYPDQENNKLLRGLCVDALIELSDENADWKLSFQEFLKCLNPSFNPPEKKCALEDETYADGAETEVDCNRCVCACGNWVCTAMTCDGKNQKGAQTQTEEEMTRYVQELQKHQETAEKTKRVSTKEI
Experimental: as §1, with “CD45− negative” for “CD45-negative”, “67A).” for “5A).”
as §2, with “CD45− negative” for “CD45-negative”, “68A).” for “6A).”
as §2, with “(#5-2,” for “(#5-2, #5-3,”, “#5-8,” for “#5-8, #5-10, #5-43,”, “#6-55, #7-34,” for “#6-55,”, “#8-7, or” for “#8-7, and”, “of CD45− negative” for “of CD45-negative”, “(FIG. 69).” for “(FIG. 6A).”

inhibitory activity against the expansion of CD45-negative cells by FSTL1 (FSTL1): Inhibitory activity was confirmed
B1: #8-8: chicken-mouse chimeric anti-FSTL1 antibody clone; variable regions SEQ ID NO: 803 (light), 805 (heavy) (antibody, V domains shown)
VH: AVTLDESGGGLQTPGGALSLVCKGSGFTFSSFNMFWVRQAPGKGLEWVAGIGKDGVPKYGAAVDGRATISKDNGQSTMRLQLNNLRAEDTGTYYCAKAAGGCSYGWCGAYTGDIDTWGHGTEVIVSS
VL: ASTQPSSVSANPGEAVKITCSGGSGSYYGWYQQKSPGSAPVTVIYNNNQRPSDIPSRFSGSKSGSTATLTITGVQVEDEAVYFCGGYDSSTGHGGIFGAGTTLTVL
modifications: mouse constant regions
inhibitory activity against the expansion of CD45-negative cells by FSTL1 [1]: Inhibitory activity was confirmed
